Measured values taken from publication PMC7117682 (2020).

Molecular target: CD47 naturally expressed on CD47(+) Jurkat T lymphoma cells (human (endogenous in Jurkat), UniProt Q08722 19-323)
Assay: FACS

Sequence of CD47 naturally expressed on CD47(+) Jurkat T lymphoma cells (Q08722 19-323): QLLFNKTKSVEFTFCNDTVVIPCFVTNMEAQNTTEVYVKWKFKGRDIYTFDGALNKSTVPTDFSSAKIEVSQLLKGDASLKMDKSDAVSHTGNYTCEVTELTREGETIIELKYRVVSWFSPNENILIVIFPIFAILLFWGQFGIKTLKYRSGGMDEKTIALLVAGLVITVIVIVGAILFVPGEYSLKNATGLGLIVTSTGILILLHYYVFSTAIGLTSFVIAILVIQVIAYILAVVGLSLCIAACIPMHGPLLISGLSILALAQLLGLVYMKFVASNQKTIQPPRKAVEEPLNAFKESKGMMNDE

B1: SIRPα-Avi-biotin (soluble, biotin-conjugated SIRPα d1 construct; allelic variant not stated for the experiment) (domain or fragment)
chain: EELQVIQPDKSVLVAAGETATLRCTATSLIPVGPIQWFRGAGPGRELIYNQKEGHFPRVTTVSDLTKRNNMDFSIRIGNITPADAGTYYCVKFRKGSPDDVEFKSG
modifications: biotin (biotin-conjugated, SIRPα-Avi-biotin)
Question: How did the EC50 turn out when B1 was run?
Answer: 2000 nM
